Columns and labels:
[1] = Monoterpene synthase assay and product identification with extracts of E. coli expressing Grand fir cDNA clones (Example 3); type: biochemical
Description: For expression, bacterial strains E. coil XLOLR/pAG3.18, E. coil XLOLR/pAG3.48, E. coli XL1-Blue/pGAG2.2, E. coli XL1-Blue/pGAG3.18, and E. coil BL21(DE3)/pSBAG10were grown to A600=0.5 at 37° C. in 5 ml of LB medium (Sambrock, J., Fritsch, E. F., and Maniatis, T. (1989) Molecular Cloning: A Laboratory Manual, 2d Ed., Cold Spring Harbor Laboratory, Cold Spring Harbor, N.Y.) supplemented with 100 μg ampicillin/ml or 30 μg kanamycin/ml as determined by the vector. Cultures were then induced by addition of 1 mM isopropyl-1-thio-β-D-galactopyranoside and grown for another 12 h at 20° C. Cells were harvested by centrifugation (2000×g, 10 min) and resuspended in either 1 ml monoterpene synthase assay buffer [50 mM Tris/HCl (pH 7.5), 500 mM KCl, 1 mM MnCl2, 5 mM dithiothreitol, 0.05% (w/v) NaHSO3 and 10% (v/v) glycerol], 1 ml sesquiterpene synthase assay buffer [10 mM dibasic potassium phosphate, 1.8 mM monobasic potassium phosphate (pH 7.3), 140 mM NaCl, 10 mM MgCl2, 5 mM dithiothreitol, 0.05% (w/v) NaHSO3 and 10% (v/v) glycerol], or 1 ml diterpene synthase assay buffer [30 mM Hepes (N-2-hydroxyethylpiperazine-N-′2-ethanesulfonic acid, pH 7.2), 7.5 mM MgCl2, 5 mM dithiothreitol, 10 µM MnCl2, 0.05% (w/v) NaHSO3 and 10% (v/v) glycerol].
Cells were disrupted by sonication (Braun-Sonic 2000 with microprobe at maximum power for 15 seconds at 0-4° C.), the homogenates were cleared by centrifugation (18,000×g, 10 min), and 1 ml of the resulting supernatant was assayed for monoterpene synthase activity with 2.5 μM of [1-^3H]geranyl diphosphate, for sesquiterpene synthase activity with 3.5 μM [1-^3H]farnesyl diphosphate, or for diterpene synthase activity with 5 μM [1- ^3H]geranylgeranyl diphosphate following standard protocols (Croteau, R., and Cane, D. E. (1985) Methods Enzymol. 110:383-405; LaFever, R. E., Stofer Vogel, B., and Croteau, R. (1994) Arch. Biochem. Biophys. 313:139-149; Dehal, S. S., and Croteau, R. (1988) Arch. Biochem. Biophys. 261:346-356). In the case of the monoterpene synthase and sesquiterpene synthase assays, the incubation mixture was overlaid with 1 ml pentane to trap volatile products. In all cases, after incubation at 31° C. for 2 h, the reaction mixture was extracted with pentane (3×1 ml) and the combined extract was passed through a 1.5 ml column of anhydrous MgSO4 and silica gel (Mallinckrodt 60 Å) to provide the terpene hydrocarbon fraction free of oxygenated metabolites. The columns were subsequently eluted with 3×1 ml of ether to collect any oxygenated products, and an aliquot of each fraction was taken for liquid scintillation counting to determine conversion rate.
Product Identification—To obtain sufficient product for analysis by radio-GLC (gas liquid chromatography), chiral capillary GLC and GLC-MS (mass spectrum/spectrometry), preparative-scale enzyme incubations were carried out. Thus, the enzyme was prepared from 50 ml of cultured bacterial cells by extraction with 3 ml of assay buffer as above, and the extracts were incubated with excess substrate overnight at 31° C. The hydrocarbon fraction was isolated by elution through MgSO4-silica gel as before, and the pentane eluate was concentrated for evaluation by capillary radio-GLC as described (Croteau, R., and Satterwhite, D. M. (1990) J. Chromatogr. 500:349-354), by chiral column capillary GLC (Lewinsohn, E., Savage, T. J., Gijzen, M., and Croteau, R. (1993) Phytochem. Anal. 4:220-225), and by combined GLC-MS [Hewlett-Packard 6890 GC-MSD with cool (40° C.) on-column injection, detection via electron impact ionization (70 eV), He carrier at 0.7 psi., column:0.25 mm i.d.×30 m fused silica with 0.25 μm film of 5MS (Hewlett-Packard) programmed from 35° C. (5 min hold) to 230° C. at 5° C./min].

[2] = Terpene synthase assay and GC-MS / chiral GC product identification of recombinant enzymes expressed from pSBET in E. coli BL21(DE3) (Example 11); type: biochemical; conditions: extracts of induced cells
Description: For functional expression, bacterial strains E. coli BL21(DE3)/pSAG2(M), E. coli BL21(DE3)/pSAG2(R), E. coli BL21(DE3)/pSAG3(R), E. coli BL21(DE3)/pSAG6(M), E. coli BL21(DE3/pSAG6(R), E. coli BL21(DE3)/pSAG8(M), E. coli BL21(DE3)/pSAG9(M), E. coli BL21(DE3)/pSAG11(M) and E. coli BL21(DE3)/SAG11(R) were grown to A600=0.5 at 37° C. in 5 ml of Luria-Bertani medium (Sambrook, J., Fritsch, E. F., and Maniatis, T. (1989) Molecular Cloning: A Laboratory Manual, 2nd Ed., pp. 7.20-7.43, Cold Spring Harbor, N.Y.) supplemented with 30 μg kanamycin/ml. Cultures were then induced by addition of 1 mM isopropyl-1-thio-β-D-galactopyranoside and grown for another 12 h at 20° C. Cells were harvested by centrifugation and disrupted by sonication followed by centrifugation, and the resulting soluble enzyme preparations were assayed for monoterpene, sesquiterpene and diterpene synthase activity using the appropriate radiolabeled substrate as described previously (Bohlmann, J., Steele, C. L., and Croteau, R. (1997) J. Biol. Chem. 272, 21784-21792). This assay involves the isolation and separation of terpene olefins and oxygenated terpenes by column chromatography on silica, followed by scintillation counting to determine conversion rate. GC-MS analysis is employed for product identification, by comparison of retention times and mass spectra to those of authentic standards (Bohlmann, J., Steele, C. L., and Croteau, R. (1997) J. Biol Chem. 272, 21784-21792); assignment of absolute configuration is based upon chiral column capillary GC and matching of retention time to that of the corresponding enantiomer (Lewinsohn, E., Savage, T. J., Gijzen, M., and Croteau, R. (1993) Phytochem. Anal. 4, 220-225). To insure production of sufficient material for identification, the standard assay (Bohlmann, J., Steele, C. L., and Croteau, R. (1997) J. Biol. Chem. 272, 21784-21792) was scaled up by a factor of 20.
Initially, the four pSBET plasmids pSAG6(M), pSAG8(M), pSAG9(M) and pSAG11(M), containing the full-length cDNA inserts of ag6 (SEQ ID NO:64), ag8 (SEQ ID NO:66), ag9 (SEQ ID NO:77) and ag11 (SEQ ID NO:68), respectively, were expressed in E. coli BL21(DE3). Extracts of the induced, transformed bacterial cells were assayed for monoterpene, sesquiterpene and diterpene synthase activity using the corresponding labeled C10, C15 and C20 prenyl diphosphate substrates (Bohlmann, J., Steele, C. L., and Croteau, R. (1997) J. Biol. Chem. 272, 21784-21792). […] Since it is known that the relatively large amino-terminal transit peptide of plant terpene synthases can impair expression of the functional preprotein in E. coli and promote the formation of intractable inclusion bodies (Williams, D. C., McGarvey, D. J., Katahira, E. J., and Croteau, R. (1998) Biochemisiry 37, 12213-12220), the“pseudomature” forms of ag6 (SEQ ID NO:64) and ag11 (SEQ ID NO:68) were prepared by truncation of the cDNAs to insert a starting methionine immediately upstream of their tandem arginine elements (R59R 60 for ag6 (SEQ ID NO:64), R^71R^72 for ag11 (SEQ ID NO:68)) for expression in E. coli BL21(DE3)/pSAG6(R) and E. coli BL21(DE3)/pSAG11(R). Similar truncations of previously characterized ag2.2 (SEQ ID NO:1) (myrcene synthase, R^64R^65) and ag3.18 (SEQ ID NO:3) ((−)-pinene synthase, (SEQ ID NO:5) R^64R^65) (Bohlmann, J., Steele, C. L., and Croteau, R. (1997) J. Biol. Chem. 272, 21784-21792) were prepared for expression from pSBET as controls for the possible alteration of product yield and distribution resulting from truncation.
Monoterpenes generated at preparative scale from geranyl diphosphate by the recombinant enzymes encoded by ag6 (SEQ ID NO:64), ag8 (SEQ ID NO:66), ag9 (SEQ ID NO:77) and ag11 (SEQ ID NO:68) were analyzed by GC-MS and chiral phase (β-cyclodextrin) capillary GC, and identified by comparison of retention times and mass spectra to authentic standards (FIGS. 6-9). […] The enzyme encoded by ag6 (SEQ ID NO:65) is therefore designated as (−)-1S,4R-camphene synthase. […]

B1: AG2.2: recombinant myrcene synthase from Grand fir encoded by cDNA clone AG2.2 (SEQ ID NO:1; protein SEQ ID NO:2) (protein, listed as Abies grandis)
chain: MALVSISPLASKSCLRKSLISSIHEHKPPYRTIPNLGMRRRGKSVTPSMSISLATAAPDDGVQRRIGDYHSNIWDDDFIQSLSTPYGEPSYQERAERLIVEVKKIFNSMYLDDGRLMSSFNDLMQRLWIVDSVERLGIARHFKNEITSALDYVFRYWEENGIGCGRDSIVTDLNSTALGFRTLRLHGYTVSPEVLKAFQDQNGQFVCSPGQTEGEIRSVLNLYRASLIAFPGEKVMEEAEIFSTRYLKEALQKIPVSALSQEIKFVMEYGWHTNLPRLEARNYIDTLEKDTSAWLNKNAGKKLLELAKLEFNIFNSLQQKELQYLLRWWKESDLPKLTFARHRHVEFYTLASCIAIDPKHSAFRLGFAKMCHLVTVLDDIYDTFGTIDELELFTSAIKRWNSSEIEHLPEYMKCVYMVVFETVNELTREAEKTQGRNTLNYVRKAWEAYFDSYMEEAKWISNGYLPMFEEYHENGKVSSAYRVATLQPILTLNAWLPDYILKGIDFPSRFNDLASSFLRLRGDTRCYKADRDRGEEASCISCYMKDNPGSTEEDALNHINAMVNDIIKELNWELLRSNDNIPMLAKKHAFDITRALHHLYIYRDGFSVANKETKKLVMETLLESMLF
With B1 the “prenyl diphosphate substrate utilized (geranyl, farnesyl, geranylgeranyl diphosphate tested)” value ([1]; cell-free extract of induced E. coli, tritium labeled substrates) was “only with geranyl diphosphate as substrate”, the “monoterpene products formed from geranyl diphosphate” value ([1]; radio-GLC, GLC-MS, chiral GLC) was “the only product was shown to be myrcene” and the “terpene synthase activity on expression from pSBET in E. coli BL21(DE3)” value [2] was “high level expression of activity”.
